Results published in patent publication US9212210B2, “Akt activity specifically inhibiting polypeptide” (Japan Science and Technology Agency, priority 2003, dated 2015).

Experiments:
Akt kinase = Akt kinase (Homo sapiens, UniProt P31749); assay: In vitro kinase assay of TCL1-induced Akt activation; assay type: biochemical; conditions: for Akt kinase activity: dose escalation
Protocol: This was predominantly correlated with Akt Ser-473 phosphorylation levels. […] D16G TCL1 was evaluated by Akt kinase activity.

Akt2 = Akt2 (Homo sapiens, UniProt P31751); assay: Yeast two-hybrid screening, β-Gal lifting assay and quantitative liquid β-Gal assay; assay type: cell-based; parameters: expressed in transfected cells; host or cells: yeast Y190 cells (Clontech), lithium acetate method; key to β-Gal lifting assay category of interaction with Akt2: 3 h-positive [++]; 8 h-positive [+]; 24 h-negative [−]; conditions: yeast Y190 cells; for binding to Akt in β-Gal lifting assay and quantitative liquid β-Gal assay: site-directed TCL1 mutants
Protocol: Y190 cells (Clontech), by using lithium acetate method; and human Akt2 (Akt2/PAS2-1) and TCL1 random library, in accordance with the previous report (Mol. Cell 6:395-407; Proc. Natl. Acad. Sci. USA 94:11534-11539); were expressed in yeast. In the presence of 3-amino-1,2,4-triazole (SIGMA), around […] clones from cDNA library were screened. β-galactosidase (β-Gal) activity in His+ colony was measured by using filter-lift assay. Yeast clones were classified into clone categories: 3 h-positive [++], 8 h-positive [+], and 24 h-negative [−] by the intensity of β-Gal. Ten clones were selected from the each category for sequencing of the nucleotide.
Y190 cells (Clontech) were expressed in yeast together with TCL1 of wild-type, D16G, K30M, Q46R, 174V, or M106V by using Akt2/PAS2-1, with the use of pGAD424 (Clontech) vector. TCL1 mutant was produced by using PCR-based site-directed mutagenesis and/or Quikchange kit (Stratagene). Liquid β-Gal assay was performed for quantitative determination of binding intensity by using ONPG (O-nitrophenyl-β-D-galactoppyranoside; Sigma) (Mol. Cell 6:395-407). The indicated values were determined by western blotting analysis (GAL4 activation domain antibody [Ab]: Clontech), and normalized by expressing transformant in each yeast.
Next, a yeast two-hybrid screening was performed to examine the interaction of each clone with Akt2. Yeast clones were classified into three categories based on the blue-color intensity expressed in β-Gal lifting assay (β-Gal positive [++] at 3 h, β-Gal positive [+] at 8 h, and negative [−]). Nucleotide sequences of the 10 clones in each category were determined.

AKT kinase (unactivated) = biological target: T1, AKT kinase (unactivated) (Homo sapiens, UniProt P31749); assay: Lipid-protein pull down assay with PIP Beads (PI (3,4,5) P3); assay type: binding; conditions: 1-400 μM peptide, 50 ng AKT kinase, 2 hours at 4° C., western blotting
T1 construct: purchased Upstate Biotechnology #14-279
Protocol: Lipid-protein pull down assay was performed for 10/24 peptide of TCL1.
Lipid-protein pull down assay was performed by using PIP Beads (PI (3,4,5) P3 Echelon Bioscience Incorporated). 10/24 NH2-AVTDHPDRLWAWEKF-COOH (SEQ ID NO: 1), and βC NH2-EKQHAWLPLTIE-COOH (SEQ ID NO: 22) as a control, were used. After treatment for 2 hours at 4° C. by using 50 ng of AKT kinase (unactivated, Upstate Biotechnology, #14-279), 25 μl of PIP Beads (PI (3,4,5) P3 Echelon Bioscience Incorporated) was added, then washed with fluid containing (10 mM Hepes, pH7.4, 0.25% NP-40, 140 mM NaCl), and western blotting was performed by using Akt antibody (Cell Signaling) (FIG. 8). […] Thus, this is considered to be the inhibition mechanism for Akt activation.

Chain of Akt kinase (P31749 whole entry): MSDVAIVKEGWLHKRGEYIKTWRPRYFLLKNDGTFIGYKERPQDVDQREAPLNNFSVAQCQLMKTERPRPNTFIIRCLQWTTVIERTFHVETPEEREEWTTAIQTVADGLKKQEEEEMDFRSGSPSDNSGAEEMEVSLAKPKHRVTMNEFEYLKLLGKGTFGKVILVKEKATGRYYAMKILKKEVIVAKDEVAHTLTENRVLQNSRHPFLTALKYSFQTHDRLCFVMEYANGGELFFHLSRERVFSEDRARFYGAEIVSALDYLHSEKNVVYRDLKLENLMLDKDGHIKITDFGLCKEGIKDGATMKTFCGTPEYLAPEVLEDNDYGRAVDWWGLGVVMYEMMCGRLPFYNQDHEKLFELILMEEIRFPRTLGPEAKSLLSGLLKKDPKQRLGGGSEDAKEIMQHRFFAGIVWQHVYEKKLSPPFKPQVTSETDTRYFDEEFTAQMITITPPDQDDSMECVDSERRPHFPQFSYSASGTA
Chain of Akt2 (P31751 whole entry): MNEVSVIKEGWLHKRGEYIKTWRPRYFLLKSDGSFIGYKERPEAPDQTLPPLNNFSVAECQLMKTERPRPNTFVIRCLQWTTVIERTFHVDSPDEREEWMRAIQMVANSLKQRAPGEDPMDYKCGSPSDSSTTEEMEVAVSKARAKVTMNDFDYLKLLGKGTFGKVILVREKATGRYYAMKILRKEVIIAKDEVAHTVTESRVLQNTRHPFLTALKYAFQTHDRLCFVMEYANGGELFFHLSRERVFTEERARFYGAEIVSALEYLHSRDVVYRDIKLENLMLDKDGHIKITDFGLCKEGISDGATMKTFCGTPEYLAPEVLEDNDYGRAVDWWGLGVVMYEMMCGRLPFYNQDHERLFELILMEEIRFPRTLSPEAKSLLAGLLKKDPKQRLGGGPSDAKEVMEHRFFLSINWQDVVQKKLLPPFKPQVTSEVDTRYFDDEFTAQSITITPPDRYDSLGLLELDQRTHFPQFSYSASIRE
T1 sequence (P31749 whole entry): as the sequence (P31749 whole entry) above

Row | Substance | GSK-3α phosphorylation and Akt Ser-473 phosphorylation (Akt kinase) | Akt kinase activity (Akt kinase) | binding to Akt in β-Gal lifting assay and quantitative liquid β-Gal assay (Akt2) | binding of PIP Beads (PI (3,4,5) P3) to AKT (AKT kinase (unactivated)) | β-Gal lifting assay category of interaction with Akt2 (Akt2; blue-color intensity)
1 | D16G TCL1: amino acid-substituted mutant form of TCL1 (D16G) | did not affect | did not affect the Akt kinase activity | dramatic decrease | – | –
2 | I74V: amino acid-substituted mutant form of TCL1 (I74V) | – | – | dramatic decrease | – | –
3 | NH2-EKQHAWLPLTIE-COOH (H-EKQHAWLPLTIE-OH; listed as Homo sapiens) [βC, reference compound] | – | – | – | did not inhibit at all | –
4 | Wild-type TCL1: human TCL1 protooncogene protein, co-activator of Akt | – | increase in Akt kinase activity | – | – | ++
